Data on two molecules can be found in PMC8643669 (Nucleic Acids Research, 2021).

Experiment [1] addresses T1, purified recombinant nuclear cap-binding complex (CBC; heterodimer of CBP80 and CBP20) (human, UniProt Q09161;P52298).
T1 sequence 1: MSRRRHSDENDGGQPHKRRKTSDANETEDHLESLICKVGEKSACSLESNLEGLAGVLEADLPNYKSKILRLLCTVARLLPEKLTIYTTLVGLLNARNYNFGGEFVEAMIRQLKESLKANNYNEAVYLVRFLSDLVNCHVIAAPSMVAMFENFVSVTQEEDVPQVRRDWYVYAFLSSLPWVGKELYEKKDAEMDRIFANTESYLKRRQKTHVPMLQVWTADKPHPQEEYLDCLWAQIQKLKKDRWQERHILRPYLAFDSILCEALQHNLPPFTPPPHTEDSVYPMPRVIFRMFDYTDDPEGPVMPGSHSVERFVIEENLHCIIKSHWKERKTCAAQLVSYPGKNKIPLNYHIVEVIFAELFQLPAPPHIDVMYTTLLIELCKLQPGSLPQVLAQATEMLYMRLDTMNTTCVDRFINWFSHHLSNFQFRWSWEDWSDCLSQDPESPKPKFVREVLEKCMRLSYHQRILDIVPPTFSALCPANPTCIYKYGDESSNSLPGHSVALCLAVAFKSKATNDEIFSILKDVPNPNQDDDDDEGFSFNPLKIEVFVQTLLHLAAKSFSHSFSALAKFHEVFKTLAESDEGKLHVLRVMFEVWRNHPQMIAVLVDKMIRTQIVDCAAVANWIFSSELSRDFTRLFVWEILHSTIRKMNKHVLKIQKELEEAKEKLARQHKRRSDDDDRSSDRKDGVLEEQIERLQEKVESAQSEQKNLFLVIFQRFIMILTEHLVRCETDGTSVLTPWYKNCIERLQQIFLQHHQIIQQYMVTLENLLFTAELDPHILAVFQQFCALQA
T1 sequence 2: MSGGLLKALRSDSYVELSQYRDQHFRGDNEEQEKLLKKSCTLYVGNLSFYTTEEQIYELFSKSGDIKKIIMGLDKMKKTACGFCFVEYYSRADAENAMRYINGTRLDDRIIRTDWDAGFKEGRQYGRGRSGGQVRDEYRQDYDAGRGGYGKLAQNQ
Description: pull-down.

In experiment [2] the target is T2, CBP80, subunit of the purified recombinant CBC (human, UniProt Q09161 1-790).
T2 sequence: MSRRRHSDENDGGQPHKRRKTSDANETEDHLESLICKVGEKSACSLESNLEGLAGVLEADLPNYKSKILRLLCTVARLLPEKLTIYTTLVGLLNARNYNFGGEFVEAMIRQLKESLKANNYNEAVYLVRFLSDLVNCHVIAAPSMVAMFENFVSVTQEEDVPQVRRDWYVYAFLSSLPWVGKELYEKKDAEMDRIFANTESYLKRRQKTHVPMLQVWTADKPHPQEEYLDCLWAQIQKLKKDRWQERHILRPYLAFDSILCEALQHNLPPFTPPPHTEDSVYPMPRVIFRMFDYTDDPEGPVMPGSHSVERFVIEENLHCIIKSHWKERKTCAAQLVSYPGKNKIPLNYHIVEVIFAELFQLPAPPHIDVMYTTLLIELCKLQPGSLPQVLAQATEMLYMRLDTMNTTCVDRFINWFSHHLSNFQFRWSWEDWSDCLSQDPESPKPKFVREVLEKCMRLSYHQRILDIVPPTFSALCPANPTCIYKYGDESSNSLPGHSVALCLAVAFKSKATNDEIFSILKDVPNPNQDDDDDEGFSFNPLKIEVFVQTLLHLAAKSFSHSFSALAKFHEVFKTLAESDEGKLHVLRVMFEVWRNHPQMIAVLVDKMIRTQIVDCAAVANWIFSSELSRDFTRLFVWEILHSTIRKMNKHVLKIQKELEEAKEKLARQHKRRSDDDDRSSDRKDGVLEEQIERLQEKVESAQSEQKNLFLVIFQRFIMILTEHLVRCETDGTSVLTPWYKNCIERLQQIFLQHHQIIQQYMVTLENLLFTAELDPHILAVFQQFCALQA
Nature of the experiment: far-Western, overlay or dot blot.

B1: purified recombinant FLAG-SRP54-NG (residues 1-293) (domain or fragment)
chain: MVLADLGRKITSALRSLSNATIINEEVLNAMLKEVCTALLEADVNIKLVKQLRENVKSAIDLEEMASGLNKRKMIQHAVFKELVKLVDPGVKAWTPTKGKQNVIMFVGLQGSGKTTTCSKLAYYYQRKGWKTCLICADTFRAGAFDQLKQNATKARIPFYGSYTEMDPVIIASEGVEKFKNENFEIIIVDTSGRHKQEDSLFEEMLQVANAIQPDNIVYVMDASIGQACEAQAKAFKDKVDVASVIVTKLDGHAKGGGALSAVAATKSPIIFIGTGEHIDDFEPFKTQPFISK
With B1, in experiment [1], the binding result was “binds”.

B2: FLAG-SRP54 full-length (p3×FLAG-SRP54-FL) (natural protein)
chain: MVLADLGRKITSALRSLSNATIINEEVLNAMLKEVCTALLEADVNIKLVKQLRENVKSAIDLEEMASGLNKRKMIQHAVFKELVKLVDPGVKAWTPTKGKQNVIMFVGLQGSGKTTTCSKLAYYYQRKGWKTCLICADTFRAGAFDQLKQNATKARIPFYGSYTEMDPVIIASEGVEKFKNENFEIIIVDTSGRHKQEDSLFEEMLQVANAIQPDNIVYVMDASIGQACEAQAKAFKDKVDVASVIVTKLDGHAKGGGALSAVAATKSPIIFIGTGEHIDDFEPFKTQPFISKLLGMGDIEGLIDKVNELKLDDNEALIEKLKHGQFTLRDMYEQFQNIMKMGPFSQILGMIPGFGTDFMSKGNEQESMARLKKLMTIMDSMNDQELDSTDGAKVFSKQPGRIQRVARGSGVSTRDVQELLTQYTKFAQMVKKMGGIKGLFKGGDMSKNVSQSQMAKLNQQMAKMMDPRVLHHMGGMAGLQSMMRQFQQGAAGNMKGMMGFNNM
In the case of B2, in experiment [2], the binding result is given as “binds”.
